Assay in all cases: SPR, antibody captured, C2 as analyte;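 note: biacore at 37 °C, anti-C2 mAbs held by immobilised goat anti-human IgG, C2 alanine or serine mutants injected, double-referenced sensorgrams fitted to a 1:1 kinetic or steady-state model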
Background: SPR reads the build-up and loss of mass on a sensor chip optically.

One experiment has as its target T1, human C2 K329A (human, UniProt P06681 21-752).
T1 sequence: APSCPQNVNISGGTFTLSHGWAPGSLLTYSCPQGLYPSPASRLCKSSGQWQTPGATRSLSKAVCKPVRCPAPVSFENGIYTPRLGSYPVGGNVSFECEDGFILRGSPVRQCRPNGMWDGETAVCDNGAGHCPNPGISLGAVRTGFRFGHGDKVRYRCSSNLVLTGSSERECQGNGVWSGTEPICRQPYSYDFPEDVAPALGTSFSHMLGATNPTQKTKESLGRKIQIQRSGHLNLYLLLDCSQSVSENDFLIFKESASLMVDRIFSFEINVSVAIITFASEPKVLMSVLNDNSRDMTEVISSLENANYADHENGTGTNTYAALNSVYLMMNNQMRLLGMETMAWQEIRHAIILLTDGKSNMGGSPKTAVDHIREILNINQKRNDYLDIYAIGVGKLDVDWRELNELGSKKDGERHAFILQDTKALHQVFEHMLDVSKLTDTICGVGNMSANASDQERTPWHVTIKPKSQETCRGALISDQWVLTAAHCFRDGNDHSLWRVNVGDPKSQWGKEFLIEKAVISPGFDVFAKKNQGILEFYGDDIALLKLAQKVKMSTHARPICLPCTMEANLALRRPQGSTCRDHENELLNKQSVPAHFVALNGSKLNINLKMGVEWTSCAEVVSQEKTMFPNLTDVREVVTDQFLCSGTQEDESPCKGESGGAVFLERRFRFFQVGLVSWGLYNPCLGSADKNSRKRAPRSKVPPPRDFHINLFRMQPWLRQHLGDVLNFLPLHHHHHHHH

For the next experiment, the target named is T2, human C2 S428A (human, UniProt P06681 21-752).
T2 sequence: T1 sequence with A309K, S408A

The next experiment has as its target T3, human C2 S473A (human, UniProt P06681 21-752).
T3 sequence: T1 sequence with A309K, S453A

The target of the next experiment is T4, human C2 G677A (human, UniProt P06681 21-752).
T4 sequence: T1 sequence with A309K, G657A

Residue numbers refer to the chain shown, from its start.

B1: RF16-242 (antibody, human IgG4 S228P, lambda, V domains shown)
VH: EVQLLQSGAEVKKPGESLKISCKGSGYSFTSYWIGWVRQMPGKGLEWMGIIYPGDSDTRYSPSFQGQVTISADKSISTAYLQWSSLKASDTAMYYCARRGHYGDYFDYWGQGTLVTVSS
VL: SYELTQPPSVSVSPGQTARITCSGDALPKKYAYWYHQKSGQAPVLVIYEDRRRPSEIPERFSGSSSGTMATLTITGAQVEDEGVYFCYSRDRAGNQRVFGGGTQLTVLG
notes: pH-dependent anti-C2 antibody from a phage display library
What is called Kd is the constant that tells how readily two partners part at equilibrium. Regarding B1, the Kd is 14.8 nM in the experiment with human C2 K329A, 18.6 nM with human C2 S428A, 15.5 nM in the experiment with human C2 S473A and 6.8 nM in the experiment with human C2 G677A.

Values taken from US20220332804A1 (CSL INNOVATION, published 2022).
